We go through 3 molecules from patent publication US20260137822A1 (ABDERA THERAPEUTICS, published 2026).

Experiment [1] concerns the target T1, FOLR1 on cells (OVCAR3, OV-90) (UniProt P15328 25-234).
T1 construct: whole, on cells; also called FOLR1-positive OVCAR3 cells; FOLR1 expressing OV-90 cells
Kind of experiment: flow cytometry on FOLR1 expressing OV-90 cells, Geomeans RL1-H against Conc (nM) [bottom panel]. A general note: In flow cytometry, cells or beads pass a laser one at a time.

The target in experiment [2] is T2, human DLL3.FLAG (Adipogen #AG-40B-0151, amino acid 27-466) (human, UniProt Q9NYJ7 27-466).
T2 construct: range 27-466; Carries a FLAG tag
T2 sequence (looked up): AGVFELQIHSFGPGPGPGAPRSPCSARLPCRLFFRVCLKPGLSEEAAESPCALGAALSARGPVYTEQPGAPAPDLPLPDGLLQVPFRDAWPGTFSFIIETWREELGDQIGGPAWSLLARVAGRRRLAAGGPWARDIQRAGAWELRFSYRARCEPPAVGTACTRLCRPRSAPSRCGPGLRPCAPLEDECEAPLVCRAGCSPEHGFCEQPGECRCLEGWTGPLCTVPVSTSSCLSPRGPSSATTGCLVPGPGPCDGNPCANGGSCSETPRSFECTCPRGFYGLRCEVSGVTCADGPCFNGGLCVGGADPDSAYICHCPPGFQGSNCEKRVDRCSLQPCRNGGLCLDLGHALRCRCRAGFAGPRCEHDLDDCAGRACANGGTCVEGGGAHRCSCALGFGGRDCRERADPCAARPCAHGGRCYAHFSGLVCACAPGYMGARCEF
The experiment is described as follows: ELISA on coated hDLL3-Flag, A450nm against nM antibody. (ELISA stands for enzyme-linked immunosorbent assay.)

Experiment [3] concerns the target T3, DLL3 on cells (SHP-77, NCI-H82, HEK-DLL3) (UniProt Q9NYJ7 27-618).
T3 construct: whole, on cells; also called DLL3-positive cell lines
T3 sequence (looked up): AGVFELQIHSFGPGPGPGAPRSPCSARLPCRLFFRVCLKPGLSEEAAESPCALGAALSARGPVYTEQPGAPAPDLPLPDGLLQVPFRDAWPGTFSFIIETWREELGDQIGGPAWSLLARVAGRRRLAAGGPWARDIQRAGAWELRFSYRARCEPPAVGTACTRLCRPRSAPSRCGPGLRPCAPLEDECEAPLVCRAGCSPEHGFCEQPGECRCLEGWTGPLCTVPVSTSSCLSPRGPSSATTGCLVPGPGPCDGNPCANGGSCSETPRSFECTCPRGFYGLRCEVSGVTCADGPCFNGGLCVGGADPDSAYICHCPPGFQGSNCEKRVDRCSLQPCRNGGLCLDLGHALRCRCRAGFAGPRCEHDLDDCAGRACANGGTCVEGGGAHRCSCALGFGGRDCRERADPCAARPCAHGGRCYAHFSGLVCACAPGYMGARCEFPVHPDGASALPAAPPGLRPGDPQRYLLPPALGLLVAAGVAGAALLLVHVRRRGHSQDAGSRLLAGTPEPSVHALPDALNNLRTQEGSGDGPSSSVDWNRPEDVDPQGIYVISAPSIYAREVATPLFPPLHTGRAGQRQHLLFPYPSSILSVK
Kind of experiment: flow cytometry on SHP-77 cells (DLL3-positive), MFI against nM antibody.

The target of experiment [4] is T3, DLL3 on cells (SHP-77, NCI-H82, …). The experiment is described as follows: flow cytometry, SHP-77 cells.
For experiment [5] the target is unchanged. The experiment is described as follows: flow cytometry, HEK-DLL3 cells.
Experiment [6] concerns the target T4, human FOLR1 (recombinant antigen) (human, UniProt P15328 25-234, limits assumed).
T4 construct: also called hFOLR1
The experiment is described as follows: ELISA on hFOLR1.

The target in experiment [7] is T5, mouse FOLR1 (recombinant antigen) (mouse, UniProt P35846 25-232, limits assumed).
T5 construct: also called mFOLR1
The experiment is described as follows: ELISA on mFOLR1.

Experiment [8] addresses T1, FOLR1 on cells (OVCAR3, OV-90). The experiment is described as follows: flow cytometry on FOLR1 expressing OV-90 cells, Geomeans RL1-H against Conc (nM) [top panel].
The target in experiment [9] is T6, mouse DLL3 (recombinant antigen) (mouse, UniProt O88516 25-477, limits assumed).
T6 construct: also called mDLL3
T6 sequence (looked up): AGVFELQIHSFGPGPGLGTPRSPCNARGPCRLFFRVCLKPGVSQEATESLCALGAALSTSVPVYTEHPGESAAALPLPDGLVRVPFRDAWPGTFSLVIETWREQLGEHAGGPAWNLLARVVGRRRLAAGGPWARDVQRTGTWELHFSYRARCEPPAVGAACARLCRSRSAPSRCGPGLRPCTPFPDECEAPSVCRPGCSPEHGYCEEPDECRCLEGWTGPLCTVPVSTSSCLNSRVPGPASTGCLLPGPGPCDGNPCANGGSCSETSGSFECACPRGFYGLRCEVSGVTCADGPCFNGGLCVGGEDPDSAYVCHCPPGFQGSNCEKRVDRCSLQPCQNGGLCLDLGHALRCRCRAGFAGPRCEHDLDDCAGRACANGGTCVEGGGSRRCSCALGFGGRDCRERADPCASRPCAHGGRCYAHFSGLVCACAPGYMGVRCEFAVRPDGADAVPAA
Kind of experiment: BLI (Octet), VHH-Fc captured on AHC biosensor, mDLL3 as analyte. For orientation: BLI is a label-free optical method that tracks binding on a fibre tip over time.

Experiment [10] addresses T7, human DLL3 (recombinant antigen) (human, UniProt Q9NYJ7 27-492, limits assumed).
T7 construct: also called hDLL3
T7 sequence (looked up): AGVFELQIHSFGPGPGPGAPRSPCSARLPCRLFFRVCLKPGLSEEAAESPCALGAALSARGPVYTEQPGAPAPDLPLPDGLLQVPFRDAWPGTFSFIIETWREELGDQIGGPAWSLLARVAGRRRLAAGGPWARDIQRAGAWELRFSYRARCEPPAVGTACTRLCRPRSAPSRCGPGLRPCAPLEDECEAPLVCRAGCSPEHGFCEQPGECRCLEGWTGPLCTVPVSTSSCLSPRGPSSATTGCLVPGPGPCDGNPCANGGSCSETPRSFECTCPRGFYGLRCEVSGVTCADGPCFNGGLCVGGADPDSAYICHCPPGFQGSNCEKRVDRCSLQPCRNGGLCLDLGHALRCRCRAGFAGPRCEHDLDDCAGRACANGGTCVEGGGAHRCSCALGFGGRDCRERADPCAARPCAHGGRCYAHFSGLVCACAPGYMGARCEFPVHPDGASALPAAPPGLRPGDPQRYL
Kind of experiment: BLI (Octet), VHH-Fc captured on AHC biosensor, hDLL3 as analyte.

T1 sequence (P15328 25-234): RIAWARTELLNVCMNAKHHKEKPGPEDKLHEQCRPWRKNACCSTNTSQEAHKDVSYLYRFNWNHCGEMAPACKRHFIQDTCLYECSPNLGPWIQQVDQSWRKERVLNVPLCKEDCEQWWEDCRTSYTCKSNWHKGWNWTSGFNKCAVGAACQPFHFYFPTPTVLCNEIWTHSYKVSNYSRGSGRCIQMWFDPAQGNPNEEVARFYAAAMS
T5 sequence (P35846 25-232 limits assumed): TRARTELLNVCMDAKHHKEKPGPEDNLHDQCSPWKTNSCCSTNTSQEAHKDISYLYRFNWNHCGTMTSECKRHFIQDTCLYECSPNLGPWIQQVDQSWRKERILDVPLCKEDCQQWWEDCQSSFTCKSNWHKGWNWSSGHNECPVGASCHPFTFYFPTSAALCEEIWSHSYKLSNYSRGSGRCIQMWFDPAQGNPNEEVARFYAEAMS
T4 sequence (P15328 25-234 limits assumed): as the sequence (P15328 25-234) above

B1: bispecific anti-h/mFOLR1/h/mDLL3 (GGS)3 tetramer, p-SCN-Bn-DOTA conjugate (bispecific antibody)
chain (part 1 of 2): QVQLVESGGGLVQPGGSLRLSCAASGFTVSNSVMAWYRQTPGNEREFVAIINSIGITNYADSVKGRFTISRDNSKNTLYLQMNSLRAEDTAVYVCNRNFDRIYWGQGTLVTVSSGGSGGSGGSEVQLVESGGGEVQPGGSLRLSCAASGSIFSINAMGWYRQAPGKQRELVAGFTGDTNTIYAESVKGRFTISRDNAKNTVYLQMSSLRAEDTAVYYCAADVQLFSRDYEFYWGQGTLVTVKP
chain (part 2 of 2): not shown
modifications: conjugated with p-SCN-Bn-DOTA
notes: Chelator conjugate of m63; not shown: hinge
For orientation: EC50 (read off the curve) means the concentration at which the effect is half-maximal. Read a low EC50 (read off the curve) as higher potency in that assay. As for B1, the “EC50 (read off the curve)” value in [1] was ~3 nM.

B2: Rovalpituzumab (Creative Biolabs #TAB-216CL) (antibody, V domains shown)
VH: QVQLVQSGAEVKKPGASVKVSCKASGYTFTNYGMNWVRQAPGQGLEWMGWINTYTGEPTYADDFKGRVTMTTDTSTSTAYMELRSLRSDDTAVYYCARIGDSSPSDYWGQGTLVTVSS
VL: EIVMTQSPATLSVSPGERATLSCKASQSVSNDVVWYQQKPGQAPRLLIYYASNRYTGIPARFSGSGSGTEFTLTISSLQSEDFAVYYCQQDYTSPWTFGQGTKLEIK
A word on the EC50: it is the concentration at which the effect is half-maximal. B2: the concentration for a half-maximal effect (EC50 (read off the curve)) in [2] is ~0.09 nM; in experiment [3], ~0.1 nM. In addition, the EC50 in experiment [4] is 0.11 nM; in experiment [5], 0.06 nM.

B3: DLL3 VHH (VHH-Fc control) (Fc fusion, not shown: a dimerising Fc or GST)
chain: EVQLVESGGGEVQPGGSLRLSCAASGSIFSINAMGWYRQAPGKQRELVAGFTGDTNTIYAESVKGRFTISRDNAKNTVYLQMSSLRAEDTAVYYCAADVQLFSRDYEFYWGQGTLVTVKP
By koff is commonly meant the rate constant with which the complex falls apart. For orientation: kon means a measure of how fast the partners come together. The Kd is the constant that tells how readily two partners part at equilibrium. In the case of B3, the binding result in [6] is given as “no binding”; in [7], “no binding”; in experiment [8], “no binding (tested: 200 nM)”. Also, the values for the koff in experiment [9] and in experiment [10] were 0.000267 s⁻¹ and 0.000379 s⁻¹, respectively. Moreover, the kon came to 215000 M⁻¹ s⁻¹ in [9] and 166000 M⁻¹ s⁻¹ in [10]. The dissociation constant Kd in experiment [10] amounted to 2.29 nM.
